Results as given in PMC10939263.

Assays:
[1] = target: C1-fused SRC kinases; assay: split reporter (BiFC, NanoBiT); Gaussia princeps luciferase complementation assay in human HEK293T cells; Gluc2 at the N terminus of SKAP1 or SKAP2 (N2), Gluc1 at the N terminus (N1) or C terminus (C1) of the SRC kinase; 100 ng plasmid pair, PEI; luminescence read in lysate one day later; normalized luminescence ratio (NLR), given relative to wild type or to SKAP2
[2] = target: N1-fused SRC kinases; assay: as above

Row | Binder | wild-type normalized NLR, mean over SRC kinases [1] | wild-type normalized NLR, mean over SRC kinases [2]
1 | SKAP1 Link2SH3 mutant, N2-fused (domain or fragment) SSLTIPYEEDEEEEEKEETYDDIDGFDSPSCGSQCRPTILPGSVGIKEPTEEKEEEDIYEVLPDEEHDLEEDESGTRRKGVDYASYYQGLWDCHGDQPDELSFQRGDLIRILSKEYNMYGWWVGELNSLVGIVPKEYLTTAFEVEE | 0.51 | 0.29
2 | SKAP1 D120K mutant, N2-fused (natural protein) MQAAALPEEIRWLLEDAEEFLAEGLRNENLSAVARDHRDHILRGFQQIKARYYWDFQPQGGDIGQDSSDDNHSGTLGLSLTSDAPFLSDYQDEGMEDIVKGAQELDNVIKQGYLEKKSKKHSFFGSEWQKRWCVVSRGLFYYYANEKSKQPKGTFLIKGYGVRMAPHLRRDSKKESCFELTSQDRRSYEFTATSPAEARDWVDQISFLLKDLSSLTIPYEEDEEEEEKEETYDDIDGFDSPSCGSQCRPTILPGSVGIKEPTEEKEEEDIYEVLPDEEHDLEEDESGTRRKGVDYASYYQGLWDCHGDQPDELSFQRGDLIRILSKEYNMYGWWVGELNSLVGIVPKEYLTTAFEVEER | 1.49 | 1.17
3 | SKAP1 DomDIM mutant, N2-fused (domain or fragment) MQAAALPEEIRWLLEDAEEFLAEGLRNENLSAVARDHRDHILRGFQQIKARYYWDFQPQGGDIGQDSSDDNHSGTLGLSLTSDAPFLSDYQDEGMEDIV | 0.32 | 0.11

Next, values leading:

Row | wild-type normalized NLR, mean over SRC kinases [1] | wild-type normalized NLR, mean over SRC kinases [2] | Binder
4 | 2.53 | 1.51 | SKAP1 ΔSH3 mutant, N2-fused (domain or fragment) MQAAALPEEIRWLLEDAEEFLAEGLRNENLSAVARDHRDHILRGFQQIKARYYWDFQPQGGDIGQDSSDDNHSGTLGLSLTSDAPFLSDYQDEGMEDIVKGAQELDNVIKQGYLEKKSKDHSFFGSEWQKRWCVVSRGLFYYYANEKSKQPKGTFLIKGYGVRMAPHLRRDSKKESCFELTSQDRRSYEFTATSPAEARDWVDQISFLLKDLSSLTIPYEEDEEEEEKEETYDDIDGFDSPSCGSQCRPTILPGSVGIKEPTEEKEEEDIYEVLPDEEHDLEEDESGTRRK
5 | 0.96 | 1.57 | SKAP1 ΔLink1PH deletion mutant, N2-fused (natural protein) MQAAALPEEIRWLLEDAEEFLAEGLRNENLSAVARDHRDHILRGFQQIKARYYWDFQPQGGDIGQDDLSSLTIPYEEDEEEEEKEETYDDIDGFDSPSCGSQCRPTILPGSVGIKEPTEEKEEEDIYEVLPDEEHDLEEDESGTRRKGVDYASYYQGLWDCHGDQPDELSFQRGDLIRILSKEYNMYGWWVGELNSLVGIVPKEYLTTAFEVEER
6 | 0.87 | 1.35 | SKAP1 ΔPH deletion mutant, N2-fused (natural protein) MQAAALPEEIRWLLEDAEEFLAEGLRNENLSAVARDHRDHILRGFQQIKARYYWDFQPQGGDIGQDSSDDNHSGTLGLSLTSDAPFLSDYQDEGMEDIVKGAQELDDLSSLTIPYEEDEEEEEKEETYDDIDGFDSPSCGSQCRPTILPGSVGIKEPTEEKEEEDIYEVLPDEEHDLEEDESGTRRKGVDYASYYQGLWDCHGDQPDELSFQRGDLIRILSKEYNMYGWWVGELNSLVGIVPKEYLTTAFEVEER
7 | 1.24 | 1.16 | SKAP1 W333K mutant, N2-fused (natural protein) MQAAALPEEIRWLLEDAEEFLAEGLRNENLSAVARDHRDHILRGFQQIKARYYWDFQPQGGDIGQDSSDDNHSGTLGLSLTSDAPFLSDYQDEGMEDIVKGAQELDNVIKQGYLEKKSKDHSFFGSEWQKRWCVVSRGLFYYYANEKSKQPKGTFLIKGYGVRMAPHLRRDSKKESCFELTSQDRRSYEFTATSPAEARDWVDQISFLLKDLSSLTIPYEEDEEEEEKEETYDDIDGFDSPSCGSQCRPTILPGSVGIKEPTEEKEEEDIYEVLPDEEHDLEEDESGTRRKGVDYASYYQGLWDCHGDQPDELSFQRGDLIRILSKEYNMYGKWVGELNSLVGIVPKEYLTTAFEVEER
